Test results reported in PMC12060179.

Key:
[1] = FRAP in cells, NaCl or sorbitol stress; conditions: glycan lost; control: EGFP-WT-YTHDF1
[2] = time-lapse imaging after sorbitol release, HeLa; conditions: glycan lost; control: EGFP-WT-YTHDF1
[3] = luciferase tethering reporter after 1 h sorbitol, HEK293T; conditions: glycan lost; control: N-WT-YTHDF1

Row | Protein | other: stress granule dynamics (FRAP recovery) [1] | other: stress granule disassembly rate [2] | other: translation restoration after stress [3]
1 | YTHDF1: EGFP-YTHDF1-Mut (protein) parent chain: MSATSVDTQRTKGQDNKVQNGSLHQKDTVHDNDFEPYLTGQSNQSNSYPSMSDPYLSSYYPPSIGFPYSLNEAPWSTAGDPPIPYLTTYGQLSNGDHHFMHDAVFGQPGGLGNNIYQHRFNFFPENPAFSAWGTSGSQGQQTQSSAYGSSYTYPPSSLGGTVVDGQPGFHSDTLSKAPGMNSLEQGMVGLKIGDVSSSAVKTVGSVVSSVALTGVLSGNGGTNVNMPVSKPTSWAAIASKPAKPQPKMKTKSGPVMGGGLPPPPIKHNMDIGTWDNKGPVPKAPVPQQAPSPQAAPQPQQVAQPLPAQPPALAQPQYQSPQQPPQTRWVAPRNRNAAFGQSGGAGSDSNSPGNVQPNSAPSVESHPVLEKLKAAHSYNPKEFEWNLKSGRVFIIKSYSEDDIHRSIKYSIWCSTEHGNKRLDSAFRCMSSKGPVYLLFSVNGSGHFCGVAEMKSPVDYGTSAGVWSQDKWKGKFDVQWIFVKDVPNNQLRHIRLENNDNKPVTNSRDTQEVPLEKAKQVLKIISSYKHTTSIFDDFAHYEKRQEEEEVVRKERQSRNKQ | decreases | decreases | 
2 | YTHDF1: N-YTHDF1-Mut (protein) parent chain: MSATSVDTQRTKGQDNKVQNGSLHQKDTVHDNDFEPYLTGQSNQSNSYPSMSDPYLSSYYPPSIGFPYSLNEAPWSTAGDPPIPYLTTYGQLSNGDHHFMHDAVFGQPGGLGNNIYQHRFNFFPENPAFSAWGTSGSQGQQTQSSAYGSSYTYPPSSLGGTVVDGQPGFHSDTLSKAPGMNSLEQGMVGLKIGDVSSSAVKTVGSVVSSVALTGVLSGNGGTNVNMPVSKPTSWAAIASKPAKPQPKMKTKSGPVMGGGLPPPPIKHNMDIGTWDNKGPVPKAPVPQQAPSPQAAPQPQQVAQPLPAQPPALAQPQYQSPQQPPQTRWVAPRNRNAAFGQSGGAGSDSNSPGNVQPNSAPSVESHPVLEKLKAAHSYNPKEFEWNLKSGRVFIIKSYSEDDIHRSIKYSIWCSTEHGNKRLDSAFRCMSSKGPVYLLFSVNGSGHFCGVAEMKSPVDYGTSAGVWSQDKWKGKFDVQWIFVKDVPNNQLRHIRLENNDNKPVTNSRDTQEVPLEKAKQVLKIISSYKHTTSIFDDFAHYEKRQEEEEVVRKERQSRNKQ |  |  | decreases
